In assay [1] the target is T1, PTP1B under reducing condition (purified recombinant 37 kDa wild type PTP1B, with TCEP) (human, UniProt P18031 1-321).
T1 construct: Same protein as m1 but kept reduced (2 mM TCEP); also called reduced, active PTP1B
T1 sequence: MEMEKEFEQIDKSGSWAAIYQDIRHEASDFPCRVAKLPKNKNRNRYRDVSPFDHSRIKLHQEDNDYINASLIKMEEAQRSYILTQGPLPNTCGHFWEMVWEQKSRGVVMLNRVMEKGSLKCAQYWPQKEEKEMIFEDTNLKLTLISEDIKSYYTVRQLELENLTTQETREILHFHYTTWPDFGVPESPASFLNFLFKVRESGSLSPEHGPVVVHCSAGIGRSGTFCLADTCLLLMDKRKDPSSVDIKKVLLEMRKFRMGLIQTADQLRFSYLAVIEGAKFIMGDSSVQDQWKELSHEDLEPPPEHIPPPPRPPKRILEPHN
Briefly: in vitro Ni-NTA pull-down of purified scFv with purified PTP1B in 2 mM TCEP, immunoblot. The protocol: (§1) In the in vitro binding assay, purified PTP was reversibly oxidized with […] followed by a quick buffer exchange to remove H_2O_2 (FIG. 8). Purified scFv was incubated in molar excess with PTP1B-OX or with PTP under reducing condition (with 2 mM TCEP) in binding buffer (20 mM HEPES, pH 7.4, 300 mM NaCl, 0.05% BSA, 0.05% Tween-20 and 10 mM imidazole) for 2 hours at 4° C. Ni-NTA agarose was added and incubated for one hour at 4° C. Protein complex bound to Ni-NTA agarose beads was pulled down and washed (three times, 5 minutes each, at 4° C.) with binding buffer containing 20 mM imidazole to reduce non-specific binding to the beads. The protein complex was eluted from the Ni-NTA agarose beads with 500 mM imidazole (in binding buffer, pH 7.4) for 15 minutes at 4° C. with gentle shaking. The complex was separated by SDS-PAGE and PTP1B was detected with anti-PTP1B antibody (FG6) and scFv was detected with anti-HA antibody [anti-HA (3F10)-HRP, Roche] by immunoblotting. Eight different scFvs (scFvs 20, 21, 24, 28, 45, 48, 57, and 105), expressed and purified from bacterial cultures were tested by this in vitro binding experiment.

Assay [2] has as its target T2, PTP1B-OX (purified recombinant 37 kDa PTP1B, reversibly oxidized with H2O2) (human, UniProt P18031 1-321, catalytic Cys 215 reversibly oxidized by H2O2 (cyclic sulphenamide form)).
T2 construct: also called PTP1B-SN
T2 sequence: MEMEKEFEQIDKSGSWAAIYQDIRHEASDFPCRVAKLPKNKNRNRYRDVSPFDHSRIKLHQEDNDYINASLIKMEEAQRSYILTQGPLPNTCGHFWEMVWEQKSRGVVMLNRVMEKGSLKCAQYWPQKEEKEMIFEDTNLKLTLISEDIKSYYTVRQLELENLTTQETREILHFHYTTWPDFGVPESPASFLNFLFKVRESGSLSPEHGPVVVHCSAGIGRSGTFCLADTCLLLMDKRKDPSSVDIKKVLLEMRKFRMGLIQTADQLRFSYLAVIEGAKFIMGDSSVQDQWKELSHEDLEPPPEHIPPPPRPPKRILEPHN
The experiment in a line: in vitro Ni-NTA pull-down of purified scFv with purified PTP1B-OX, immunoblot. As to the method:
as §1

Results on 3 molecules are retold here after patent US9074002B2, “PTP1B inhibitors” (Cold Spring Harbor Laboratory, priority 2009, dated 2015).

B1: scFv48 (scFv)
scFv: LTQPSSVSANPGETVKITCSEGGRSSYYGWYQQKAPGSAPVTVIYDSSSRPSDIPSRFSGSKSGSTGTLTITGVQAEDEAVYYCGSTDSSTSAAIFGAGTTLTVLGQSSRSSTVTLDESGGGLQTPGRALSLVCKASGFTFSSFNMGWVRQAPGKGLEYVASISSSGSYTAYGSAVKGRATISRDNGQSTVRLQLNNLRAEDTATYYCAKAAGSAYYYTAVTPAFAGSIDAWGHGTEVIVSSTSGQAGQHHHHHHGAYPYDVPDYAS
In the case of B1, the binding result in assay [1] and in assay [2] was “no binding” in each case.

B2: scFv21 (scFv)
scFv: LTQPSSVSANPGGTVKITCSGSSGSYYGWYQQKSPGSAPVTVIYDNDKRPSDVPSRFSGSKSGPTATLTITGVQAEDEAVYFCGSRDNSYVGIFGAGTTLTVLGQSSRSSAVTLDESGGGLQTPGGALSLVCKASGFTFSSYDMFWVRQAPGKGLEFVAQINSAGSYTNYGSAVKGRATISRDDGQSTVRLQLNNLRAEDTGIYFCAKSASGYYYSGSDAGDIDAWGHGTEVIVSSTSGQAGQHHHHHHGAYPYDVPDYAS
In the case of B2, the binding result in assay [1] and in assay [2] was “no binding” in each case.

B3: scFv20 (scFv)
scFv: LTQPSSVSANLGGIVEITCSGSSGSYGWYQQKSPGSAPVTVIYYNDKRPSNIPSRFSGSGSGSTNTLTIAGVRAEDEAVYYCGNEDSSGAAFGAGTTLTVLGQSSRSSAVTLDESGGGLQTPGGGLSLVCKASGFTFSDYDMFWVRQAPSKGLEFVAAITSSGTGTKYGAAVKGRATISKDNGQRTVRLQLNSLGAEDTGTYYCARSDADSTTWSAGEIDAWGHGTEVIVSSTSGQAGQHHHHHHGAYPYDVPDYAS
As to B3, the binding result in assay [1] and in assay [2] was “no binding” in each case.
